Experimental data reported in patent publication US7179464.

Assays:
[1] = molecular target: soluble human IL-5R α (shIL-5R α) (human) (UniProt Q01344); experiment: discussion of the ELISA results; assay not given
[2] = molecular target: soluble human IL-5R α (shIL-5R α) (human) (UniProt Q01344); experiment: ELISA method 2: purified antibody on plate-coated shIL-5R α, anti-human IgG detection

Sequence of soluble human IL-5R α (shIL-5R α) (human) (Q01344 other isoform, or with tags, fused parts or gaps limits assumed, form in doubt): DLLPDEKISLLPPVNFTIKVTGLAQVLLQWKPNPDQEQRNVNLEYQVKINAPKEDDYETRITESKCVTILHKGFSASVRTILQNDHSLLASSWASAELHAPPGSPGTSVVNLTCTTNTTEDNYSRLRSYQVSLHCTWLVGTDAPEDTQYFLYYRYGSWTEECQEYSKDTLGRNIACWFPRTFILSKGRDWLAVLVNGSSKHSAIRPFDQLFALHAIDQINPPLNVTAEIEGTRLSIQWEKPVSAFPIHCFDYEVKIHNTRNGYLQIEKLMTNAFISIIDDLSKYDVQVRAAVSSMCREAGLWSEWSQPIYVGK

B1: anti-human IL-5R α chain human CDR-grafted antibody KM8397 (antibody, human IgG1, V domains shown)
VH: EVQLVQSGAEVKKPGASVKVSCKASGYTFTSYVIHWVRQAPGQGLEWMGYINPYNDGTKYNERFKGRVTITADTSTSTAYMELSSLRSEDTAVYYCAREGIRYYGLLGDYWGQGTLVTVSS
VL: DIQMTQSPSSLSASVGDRVTITCGTSEDIINYLNWYQQKPGKAPKLLIYHTSRLQSGVPSRFSGSGSGTDFTLTISSLQPEDFATYYCQQGYTLPYTFGQGTKVEIK
Q: For B1, which activity relative to KM1259 (fold of KM1259) [1] is on record?
A: Its activity relative to KM1259 (fold of KM1259) is 0.5.

Q: And the reactivity relative to KM1399 (fold of KM1399) [2]?
A: Its reactivity relative to KM1399 (fold of KM1399) is 0.5.
